Results as given in patent US20110293610A1 (published 2011).

The binders below were run against T1, HIS-tagged B Lymphocyte Stimulator (human, UniProt Q9Y275 71-285) (assay: BIAcore, periplasmic scFv on high density HIS-BLyS surface).
T1 construct: Expressed in E. coli from pQE9 and purified; also called histidine-tagged B Lymphocyte Stimulator; HIS-B Lymphocyte Stimulator; not shown: histidine tag of the pQE9 vector
Experimental: (§1) All BIAcore analysis was performed on BIAcore 2000 machines, using the BIAcore 2000 control software and evaluated using the BIAevaluation 3.0 software. A high density His-tagged B Lymphocyte Stimulator surface (>1000 RU HIS-B Lymphocyte Stimulator coupled) was prepared in flow cell 2 by amine coupling to a CM5 chip. A new CM5 chip was inserted into the BIAcore and a sensorgram started over flow cell 2 with HBS buffer at a flow rate of 5 μl/min. The NHS and EDC solution were mixed 1:1 before injecting 30 μl over the CM5 surface. Fifty μl HIS-B Lymphocyte Stimulator (at 10 μg/ml in Sodium acetate buffer, pH4) was injected and allowed to couple to the surface. Thirty μl of ethanolamine-HCl solution was then injected to block free NHS esters. Prior to using the chip, 10 μl of 4M Guanidine hydrochloride in HBS was injected over the surface to strip the surface of non-covalently bound B Lymphocyte Stimulator. A blank surface (no HIS-B Lymphocyte Stimulator) was also prepared over flow cell 1 so that non-specific binding effects can be subtracted from the HIS-B Lymphocyte Stimulator binding curves.
(§2) The 96-well plate containing periplasmic scFvs was secured inside the BIAcore. Two ml of 4M Guanidine hydrochloride in HBS was placed in a rack inside the BIAcore for regeneration of the HIS-B Lymphocyte Stimulator surface between samples. The sensorgram was run over flow cells 1 and 2 at a flow rate of […].
T1 sequence (Q9Y275 71-285): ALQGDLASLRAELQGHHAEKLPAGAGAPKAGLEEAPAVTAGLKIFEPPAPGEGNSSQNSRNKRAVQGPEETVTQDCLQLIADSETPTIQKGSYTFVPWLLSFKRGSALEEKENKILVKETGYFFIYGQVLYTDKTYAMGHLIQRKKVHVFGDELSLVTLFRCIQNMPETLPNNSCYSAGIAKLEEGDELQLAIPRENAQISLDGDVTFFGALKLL

| binding result | Binder |
| --- | --- |
| binds | I084C04 (scFv) scFv: VQLVQSGAEVKKPGASVKVSCKASGYTFTSYGISWVRQAPGQGLEWMGWINPNSGGTNYAQKFQGRVTMTRDTSISTAYMELSRLRSDDTAVYYCARNLWGLDYWGKGTMVTVSSGGGGSGGGGSGGGGSSELTQDPAVSVALGQTVRITCQGDSLRSYYASWYQQKPGQAPVLVIYGKNNRPSGIPDRFSGSSSGNTASLTITGAQAEDEADYYCNSRDSSGNHVVFGGGTKLTVLG |
| binds | I080G09 (scFv) scFv: QVQLVQSGAEVKKPGASVRVSCKSSGYTFTNYGISWVRQAPGQGLEWMGWISNNNGKTYYAQKVQGRVTMTTDTSTSTDYMELRGLRSDDTAIYYCARDNGGGTIGFDYWGQGTLVTVSSGGGGSGGGGSGGGGSAQSVLTQPPSVSGAPGQRVTISCTGSSSNIGADYDVHWYQLLPGTAPKLLIYGNTNRPSGVPDRFSGSKSGTSASLTIAGLQAEDEADYYCQSYDSSLSGSVVFGGGTKLTVLG |
| binds | I083B12 (scFv) scFv: QVQLVQSGAEVKKPGASVKVSCKASEYTFYNHYMHWVRQAPGQGLEWMGFINPSGDAAWYAQKFQGRVTLTRDTSTRTVYMELSGLTSEDTAVYYCARESGAGGYYYDDYWGKGTLVTVSSGGGGSGGGGSGGGGSALSYVLTQPPSVSVAPGKTASIPCGGNNIGSKSVQWYLQKAGQAPILVVYDDSDRPSGIPERFSGSNSGNTATLTITRVEAGDEADYYCQVWDSSSDHWFFGGGTKLTVLG |
| binds | I080E05 (scFv) scFv: EVQLVQSGAAVKKPGASVKVSCKASGYTFTTYYIHWVRQAPGQGLEWMGIINPVNGNTIYAQKFQGRVTMTRDTSTGTVNMELSSLRSEDTAVFYCVREGGGDAYDVAPYYFDYWGQGTLVTVSSGGGGSGGGGSGGGGSAQAVLTQPSSVSGAPGQRVTISCTGSSSNIGDGYDVHWYQQLPGTAPKLLIYGNSHRPSGVPDRFSGSKSDTSASLAITGLQVEDEADYFCHSYDSSVSGWIFGGGTKLTVLG |
| binds | I080G07 (scFv) scFv: QVQLVQSGAEVKKPGASVKVSCKASGYTFTSYAMHWVRQAPGQRLEWMGWINAGNGNTKYSQKFQGRVTITRDTSASTAYMELSSLRSEDTAVYYCAREGPGYYYGMDVWGQGTMVTVSSGGGGSGGGGSGGGGSALETTLTQSPGTLSLSPGERATLSCRASQAIGSNYLAWYQQKPGQPPSLLIYGASSRATGIPDRFSASGSGTDFTLTISRLEPEDFAVYYCQQYGSSITFGQGTRLEIKR [I080G07, listing 1 of 2 here] |
| binds | I079F06 (scFv) scFv: QVQLVESGGGLVQPGGSLRLSCAASGFTFSSYWMSWVRQAPGKGLEWVANIKQDGSEKYYVDSVKGRFTISRDNAKNSLYLQMNSLRAEDTAVYYCARDNLHAAFDIWGRGTLVTVSGGGGGSGGGGSGGGGSDIQMTQSPSTLSASIGDRVTITCRASEGIYHWLAWYQQKPGKAPKLLIYKASSLASGAPSRFSGSGSGTDFTLTISSLQPDDFATYYCQQYSNYPLTFGGGTKLEIKR |
| binds | I080D03 (scFv) scFv: QVQLVQSGAELKQPGTSVKVSCKASGYSFSSYGVTWVRQAPGQGLEWMGWVSGNRGNTQYAQKFQDRVRMTTDTSTSTAYMELRSLRPDDTAVYFCARVGIKAAAVDNFEYWGRGTTVTVSSGGGGSGGGGSGGGGSAQSVLTQPPSASGTPGQRVTITCSGSSSNIGDYYVNWYQQVSGTTPKLIIYRDDQRPSGVPDRFSGSKSGASASLAISGLRSEDEANYFCAAWDDSLREFAFGTGTKVTVLG |
| binds | I083G03 (scFv) scFv: QVQLVQSGAELKQPGTSVKVSCKASGYSFSSYGVTWVRQAPGQGLEWMGWVSGNRGNTQYAQKFQDRVRMTTDTSTSTAYMELRSLRPDDTDVYFCARVGIKAAAVDNFEYWGRGTTVTVSSGGGGSGGGGSGGGGSAQSVLTQPPSASGTPGQRVTITCSGSSSNIGDYYVNWYQQVSGTTPKLIIYRDDQRPSGVPDRFSGSKSGASASLAISGLRSEDEANYFCAAWDDSLREFAFGTGTKVTVLG |
| binds | I080A03 (scFv) scFv: QVQLQQSGAELKQPGTSVKVSCKASGYSFSCYDVNWVRQAPGQGLEWMGRINPNSGNTHYAQKFQDRVTMTTDTSTSTAYMELNSLRPDDTAVYFCARVGIKAAAVDNFEYWGRGTTVTVSSGGGGSGGGGSGGGGSAQSVLTQPPSASGTPGQRVTITCSGSSSNIGDYYVNWYQQVSGTTPKLIIYRDDQRPSGVPDRFSGSKSGASASLAISGLRSEDEANYFCAAWDDSLREFAFGTGTKVTVLG |
| binds | I079B12 (scFv) scFv: EVQLVQSRGGVVQPGRSLRLSCAASGLTFSSYGMHWVRQAPGKGLEWVAVISYDGRNKYYADSVKGRFTTSRDNSKNTLYLQMNSLRAEDTAVYYCAKWTSSGAFDIWGRGTLVTVSSGGGGSGGGGSGGGGSDIQMTQSPSTLSASIGDRVTITCRASEGIYHWLAWYQQKPGKAPKLLIYKASSLASGAPSRFSGSGSGTDFTLTISSLQPDDFATYYCHQYSNYPLTFGGGTKLEIKR |
| binds | I082D07 (scFv) scFv: EVQLVQSRGGVVQPGRSLRLSCAASGLTFSSYGMHWVRQAPGKGLEWVAVISYDGRNKYYADSVKGRFTTSRDNSKNTLYLQMNSLRAEDTAVYYCAKWTSSGAFDIWGRGTLVTVSSGGGGSGGGGSGGGGSDIQMTQSPSTLSASIGDRVTITCRASEGIYHWLAWYQQKPGKAPKLLIYKASSLASGAPSRFSGSGSGTDFTLTISSLQPDDFATYYCQQYSNYPLTFGGGTKLEIKR |
| binds | I079B05 (scFv) scFv: GVQLVESGGGLVKPGGSLRLSCATSGFRFSDYAMTWVRQAPGKGLEWVSSITGSGGGTHYAGSVRGRFTISRDNSKNTVYLQMNNLRPEDTAVYYCASFVLDYWGKGTLVTVSSGGGGSGGGGSGGGGSQSVLTQPASVSGSPGQSITISCTGTSSDVGGYNYVSWYQQHPGKAPKLMIYEGSKRPSGVSNRFSGSKSGNTASLTISGLQAEDEADYYCSSYTTRSTRVFGGGTKLTVLG |

What follows are binders tested against T2, HIS-tagged B Lymphocyte Stimulator (human, UniProt Q9Y275 71-285) (assay: BIAcore, periplasmic scFv over high density HIS-BLyS surface).
T2 construct: Expressed in E. coli; also called HIS-B Lymphocyte Stimulator; histidine-tagged B Lymphocyte Stimulator; not shown: histidine tag from the pQE9 vector
Experimental: as §1, §2
T2 sequence (Q9Y275 71-285): as the sequence (Q9Y275 71-285) above

| binding result | Binder |
| --- | --- |
| binds | I080A08 (scFv) scFv: QVTLKESGGDLVQPGGSLRLSCAASGLTFMSYAMTWVRQAPGKGLEWVSSISGSGDNTYYGDSVRGRFTISRDNSKNTLFLQLNSLRAEDTAFYYCAKVHSTGYAFENWGRGTLVTVSSGGGGSGGGGSGGGGSAQSVLTQPPSVSGAPGQRVTISCTGSSSNIGAGYNVHWYQQLPGTAPRLLISSNTNRPSGVPDRFSGSKSGTSASLAITGLQAEDEADYYCQSYDSSLSGFVFGTGTKVTVLG |
| binds | I084C11 (scFv) scFv: GVQLEESGAEVKKPGASVKVSCKASGYTFTGYYMHWVRQAPGQGLEWMGWINPNSGGTNYAQKFQGRVTMTRDTSISTAYMELSRLRSDDTAVYYCARGNAWGAFDIWGRSTLVTVSSGGGGSGGGGSGGGGSQSVLTQPASVSGSPGQSITISCTGTSSDVGGYNYVSWYQQHPGKAPKLMIYEGSKRPSGVSNRFSGSKSGNTASLTVSGLQAEDEADYYCSSYTTRSTRVFGGGTKLTVLG |
| binds | I080G07 (scFv) scFv: QVQLVQSGAEVKKPGASVKVSCKASGYTFTSYAMHWVRQAPGQRLEWMGWINAGNGNTKYSQKFQGRVTITRDTSASTAYMELSSLRSEDTAVYYCAREGPGYYYGMDVWGQGTMVTVSSGGGGSGGGGSGGGGSALETTLTQSPGTLSLSPGERATLSCRASQAIGSNYLAWYQQKPGQPPSLLIYGASSRATGIPDRFSASGSGTDFTLTISRLEPEDFAVYYCQQYGSSITFGQGTRLEIKR [I080G07, listing 2 of 2 here] |
